Laboratory results as given in article PMC5440653, “SorLA in Interleukin-6 Signaling and Turnover” (Molecular and Cellular Biology, 2017).

B1: soluble IL-6 receptor (IL-6R ectodomain) (receptor, human, UniProt P08887 20-365, looked up)
chain: LAPRRCPAQEVARGVLTSLPGDSVTLTCPGVEPEDNATVHWVLRKPAAGSHPSRWAGMGRRLLLRSVQLHDSGNYSCYRAGRPAGTVHLLVDVPPEEPQLSCFRKSPLSNVVCEWGPRSTPSLTTKAVLLVRKFQNSPAEDFQEPCQYSQESQKFSCQLAVPEGDSSFYIVSMCVASSVGSKFSKTQTFQGCGILQPDPPANITVTAVARNPRWLSVTWQDPHSWNSSFYRLRFELRYRAERSKTFTTWMVKDLQHHCVIHDAWSGLRHVVQLRAQEEFGQGEWSEWSPEAMGTPWTESRSPPAENEVSTPMQALTTNKDDDNILFRDSANATSLPVQDSSSVPLP
notes: interleukin-6 receptor (alpha chain), human, soluble form consisting only of the ectodomain; also called sIL-6R; recombinant human sIL-6R; source: bought: R&D Systems

Key:
[1] = biological target: SorLA Vps10p domain (human); experiment: SPR; Biacore 3000, CM5 chip; purified soluble receptor immobilized (66 to 86 fmol/mm^2), ligand injected at 5 ul/min, 25°C, 10 mM HEPES, 150 mM NaCl, 1.5 mM CaCl2, 1 mM EGTA, 0.005% Tween 20, pH 7.4; Langmuir 1:1 model, global fitting
[2] = biological target: T1, soluble SorLA (SorLA ectodomain, luminal part) (human, UniProt Q92673 82-2137); experiment: as above; settings: both partners purified
T1 construct: SorLA, human, luminal (extracellular) part; The introduction says that the propeptide is cut off in late Golgi compartments; also called sSorLA; the entire extracellular part of SorLA

[3] = biological target: T2, preformed sSorLA:IL-6 complex (human, UniProt Q92673 82-2137; P05231 30-212); experiment: SPR; immobilized sSorLA first exposed to IL-6 (100 nM), then fresh buffer with 100 nM sIL-6R injected; n = 3; settings: both partners purified
T2 construct: SorLA, human, luminal (extracellular) part, as m3; interleukin-6, human, recombinant, as m1; source: formed on the sensor chip: immobilized sSorLA exposed to IL-6 (100 nM)
T2 sequence (Q92673 82-2137, chain 1 of 2): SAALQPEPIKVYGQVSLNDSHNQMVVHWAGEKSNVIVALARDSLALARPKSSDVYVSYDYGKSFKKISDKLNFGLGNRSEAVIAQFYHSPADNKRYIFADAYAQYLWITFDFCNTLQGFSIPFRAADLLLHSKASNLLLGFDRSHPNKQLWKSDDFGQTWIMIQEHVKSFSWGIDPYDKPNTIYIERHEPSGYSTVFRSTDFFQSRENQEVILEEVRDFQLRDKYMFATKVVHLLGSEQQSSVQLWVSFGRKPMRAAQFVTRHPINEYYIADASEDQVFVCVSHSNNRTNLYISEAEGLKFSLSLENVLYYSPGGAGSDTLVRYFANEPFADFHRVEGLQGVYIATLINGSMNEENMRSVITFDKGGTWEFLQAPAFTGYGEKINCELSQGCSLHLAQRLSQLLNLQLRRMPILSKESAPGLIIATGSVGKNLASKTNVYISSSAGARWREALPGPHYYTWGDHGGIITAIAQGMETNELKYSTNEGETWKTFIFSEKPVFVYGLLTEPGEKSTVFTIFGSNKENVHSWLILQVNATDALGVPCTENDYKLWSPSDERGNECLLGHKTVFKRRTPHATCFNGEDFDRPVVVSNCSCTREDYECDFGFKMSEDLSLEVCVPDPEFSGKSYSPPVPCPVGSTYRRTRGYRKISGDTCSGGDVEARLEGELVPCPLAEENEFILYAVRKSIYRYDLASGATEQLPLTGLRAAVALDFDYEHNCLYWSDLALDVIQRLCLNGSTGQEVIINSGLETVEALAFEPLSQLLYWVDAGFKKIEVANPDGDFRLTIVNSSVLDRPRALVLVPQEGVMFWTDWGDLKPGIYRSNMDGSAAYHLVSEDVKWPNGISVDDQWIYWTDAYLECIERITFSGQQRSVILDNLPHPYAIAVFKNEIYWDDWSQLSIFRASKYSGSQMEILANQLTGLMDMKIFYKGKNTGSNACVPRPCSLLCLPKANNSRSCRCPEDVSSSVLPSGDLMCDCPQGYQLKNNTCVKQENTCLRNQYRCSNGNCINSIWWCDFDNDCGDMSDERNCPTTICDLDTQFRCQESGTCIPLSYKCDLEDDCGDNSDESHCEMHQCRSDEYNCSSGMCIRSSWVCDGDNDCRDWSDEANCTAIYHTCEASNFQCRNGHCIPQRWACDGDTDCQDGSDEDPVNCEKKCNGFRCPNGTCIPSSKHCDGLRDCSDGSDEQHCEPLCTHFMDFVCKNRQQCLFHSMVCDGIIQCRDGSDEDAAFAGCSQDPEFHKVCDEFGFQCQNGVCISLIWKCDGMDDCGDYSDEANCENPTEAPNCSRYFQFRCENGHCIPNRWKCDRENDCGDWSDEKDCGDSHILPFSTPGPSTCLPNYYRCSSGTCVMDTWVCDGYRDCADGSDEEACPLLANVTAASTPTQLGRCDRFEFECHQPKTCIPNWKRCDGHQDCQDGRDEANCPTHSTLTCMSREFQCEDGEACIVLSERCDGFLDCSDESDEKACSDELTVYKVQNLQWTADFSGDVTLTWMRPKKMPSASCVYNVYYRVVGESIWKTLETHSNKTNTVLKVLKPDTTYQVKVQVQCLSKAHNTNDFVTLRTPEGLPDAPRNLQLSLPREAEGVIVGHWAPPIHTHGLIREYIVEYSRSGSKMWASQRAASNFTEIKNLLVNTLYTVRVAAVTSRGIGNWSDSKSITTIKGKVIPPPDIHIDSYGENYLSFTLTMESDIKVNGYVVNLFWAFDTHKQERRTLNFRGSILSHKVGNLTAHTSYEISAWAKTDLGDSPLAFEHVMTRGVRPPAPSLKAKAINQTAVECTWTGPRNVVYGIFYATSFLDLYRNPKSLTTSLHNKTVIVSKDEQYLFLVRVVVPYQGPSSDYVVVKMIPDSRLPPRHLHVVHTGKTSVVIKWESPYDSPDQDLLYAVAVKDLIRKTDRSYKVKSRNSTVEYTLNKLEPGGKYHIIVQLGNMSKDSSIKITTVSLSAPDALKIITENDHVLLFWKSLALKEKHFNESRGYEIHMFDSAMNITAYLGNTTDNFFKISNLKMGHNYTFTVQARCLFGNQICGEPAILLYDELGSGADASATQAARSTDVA
T2 sequence (P05231 30-212, chain 2 of 2): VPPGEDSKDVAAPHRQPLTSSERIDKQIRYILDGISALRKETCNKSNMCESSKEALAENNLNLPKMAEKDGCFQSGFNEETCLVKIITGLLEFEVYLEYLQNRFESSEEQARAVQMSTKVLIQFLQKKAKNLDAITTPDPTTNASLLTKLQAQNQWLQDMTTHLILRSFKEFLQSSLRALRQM

T1 sequence (Q92673 82-2137): as the sequence (Q92673 82-2137, chain 1 of 2) above

Row | Molecule | Kd [1] [nM] | Kd [2] [nM] | Kd [3] [nM]
1 | soluble IL-6 receptor (IL-6R ectodomain) (from UniProt P08887 20-365) | 9 | – | –
2 | Interleukin-6 (from UniProt P05231 30-212) (ligand) | 12 | – | –
3 | B1 | – | ~34 | 8
